# Source: patent US6991909B2, “Enkurin and uses thereof” (University of Massachusetts, priority 2002, dated 2006)
# T1: TRPC2 stably expressed in HEK-293 cells (mouse, UniProt Q9R244 1-1172)
# T1 sequence (looked up): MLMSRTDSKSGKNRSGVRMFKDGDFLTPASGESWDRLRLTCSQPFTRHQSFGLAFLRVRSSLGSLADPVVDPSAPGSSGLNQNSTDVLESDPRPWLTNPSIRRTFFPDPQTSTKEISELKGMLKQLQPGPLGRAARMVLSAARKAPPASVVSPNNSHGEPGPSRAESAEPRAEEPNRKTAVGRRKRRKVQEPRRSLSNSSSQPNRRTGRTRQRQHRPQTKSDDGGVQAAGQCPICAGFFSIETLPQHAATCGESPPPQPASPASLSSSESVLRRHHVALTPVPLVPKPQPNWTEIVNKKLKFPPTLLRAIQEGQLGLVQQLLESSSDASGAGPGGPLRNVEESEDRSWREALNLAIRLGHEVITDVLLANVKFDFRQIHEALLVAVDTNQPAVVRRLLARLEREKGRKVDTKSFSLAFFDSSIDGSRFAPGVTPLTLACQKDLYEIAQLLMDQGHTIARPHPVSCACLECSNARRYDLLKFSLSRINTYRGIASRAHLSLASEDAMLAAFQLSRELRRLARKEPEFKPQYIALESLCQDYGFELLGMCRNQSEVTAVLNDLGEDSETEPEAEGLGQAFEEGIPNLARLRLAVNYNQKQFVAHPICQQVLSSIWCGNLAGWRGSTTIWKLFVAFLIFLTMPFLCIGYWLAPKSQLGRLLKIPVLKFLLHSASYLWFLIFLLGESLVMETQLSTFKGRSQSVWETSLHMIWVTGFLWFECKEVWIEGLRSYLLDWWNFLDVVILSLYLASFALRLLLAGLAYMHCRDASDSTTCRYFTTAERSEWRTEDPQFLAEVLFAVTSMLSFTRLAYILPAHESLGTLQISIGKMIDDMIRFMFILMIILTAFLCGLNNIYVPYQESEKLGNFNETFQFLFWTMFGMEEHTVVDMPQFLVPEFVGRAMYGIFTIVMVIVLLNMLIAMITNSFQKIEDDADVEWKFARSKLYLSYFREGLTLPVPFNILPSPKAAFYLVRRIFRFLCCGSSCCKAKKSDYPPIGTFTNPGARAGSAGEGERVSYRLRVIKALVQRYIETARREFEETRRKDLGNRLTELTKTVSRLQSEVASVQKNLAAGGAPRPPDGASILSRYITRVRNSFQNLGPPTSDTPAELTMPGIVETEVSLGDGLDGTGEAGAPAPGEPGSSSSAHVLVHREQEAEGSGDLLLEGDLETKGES
# T2: enkurin-HA (Mus musculus (Mouse)) (UniProt Q6SP97)
# T2 sequence: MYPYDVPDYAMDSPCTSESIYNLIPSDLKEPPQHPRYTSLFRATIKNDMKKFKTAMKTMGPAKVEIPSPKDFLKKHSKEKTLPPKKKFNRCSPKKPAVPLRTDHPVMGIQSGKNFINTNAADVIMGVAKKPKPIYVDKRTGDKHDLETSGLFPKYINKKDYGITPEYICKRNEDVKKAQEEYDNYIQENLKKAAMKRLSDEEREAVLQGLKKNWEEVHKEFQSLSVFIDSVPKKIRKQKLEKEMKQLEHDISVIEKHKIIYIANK
# B1: enkurin (other)
# chain: MDSPCTSESIYNLIPSDLKEPPQHPRYTSLFRATIKNDMKKFKTAMKTMGPAKVEIPSPKDFLKKHSKEKTLPPKKKFNRCSPKKPAVPLRTDHPVMGIQSGKNFINTNAADVIMGVAKKPKPIYVDKRTGDKHDLETSGLFPKYINKKDYGITPEYICKRNEDVKKAQEEYDNYIQENLKKAAMKRLSDEEREAVLQGLKKNWEEVHKEFQSLSVFIDSVPKKIRKQKLEKEMKQLEHDISVIEKHKIIYIANK
# Legend:
# [1] = molecular target: T1, TRPC2 stably expressed in HEK-293 cells; experiment: cell-based or functional assay
# TRPC2 channel = experiment: Perforated whole cell patch clamp of ATP-evoked currents in HEK-293 cells stably transfected with TRPC2; format: cell-based, mouse
# Source text: The effects of enkurin on the ion channel activity of TRPC2 were examined using HEK-293 cells that were stably transfected with TRPC2. HEK cells provide a good model for the study of receptor-activated ion channels since they have very low levels of endogenous ion channel activity and thus provide a relatively uncomplicated model for the study of exogenous channels. These cells also have endogenous […] receptors that regulate phospholipase C (PLC), thereby providing a facile and reversible means for activating PLC-dependent ion channels, HEK cells have been used to study TRPC2 function (Jungnickel et al., supra 2001).
# In experiments on the TRPC2 channel in HEK cells, ion channel activity was measured using the perforated, whole cell patch clamp. This configuration permits the determination of ion currents while simultaneously maintaining cytoplasmic integrity.
# ATP ([…]) evoked an inward current in TRPC2-expressing HEK cells (Derassi et al, 1998, Trends Cell Biol 8:84-87) that reaches peak amplitude in 20-30 seconds. However, when TRPC2 and enkurin were co-expressed (trace 2), the evoked current was 5-6 times larger (131+/−12 pA, n=5). This current activates about 25 times faster (peak amplitude in 0.5-1 seconds) and inactivates more rapidly. Total TRPC2 current, as estimated by integrating the areas beneath these traces, is increased nine +/−two-fold by enkurin. […] Anti-RDAS blocked >95% of the ATP-evoked current in cells that had been co-transfected with TRPC2 and with enkurin (trace 2). Thus, enkurin is stimulating TRPC2 currents, not acting at some undefined endogenous channel or forming a channel itself.
# In the assay, HEK cells are used that constitutively express TRPC2. Such cell lines can be produced using methods known in the art. The line should express reproducible levels of TRPC2 current. In a line that we developed, enkurin increased the peak amplitude of ATP-evoked TRPC2 currents by >5-6 fold and the activation and inactivation rates by 25 fold. In addition, this signal can be “zero-ed” using anti-RDAS, the TRPC2 blocking antibody (FIG. 7). Given this magnitude of current enhancement by enkurin in such a cell line, even subtle effects of enkurin mutants, candidate compounds, or antisense molecules are detectable.
# [2] = molecular target: T2, enkurin-HA (Mus musculus (Mouse)); experiment: co-immunoprecipitation with anti-HA-Sepharose from HEK/TRPC2 cell extracts, blot with anti-RDAS; peptide competes with TRPC2
# [3] = TRPC2 and enkurin co-expressed vs TRPC2 alone
Molecule,activation rate of the ATP-evoked current [1] [fold],total TRPC2 current (integrated area beneath traces) [1] [fold],time to peak amplitude (TRPC2 channel; TRPC2 and enkurin co-expressed) [s],current activates faster (TRPC2 channel; [3]),increase of peak amplitude of ATP-evoked TRPC2 current (TRPC2 channel; [3]),"increase of total TRPC2 current, estimated by integrating areas beneath traces (TRPC2 channel; [3])","ATP-evoked current (TRPC2 channel; TRPC2 and enkurin co-expressed, n=5)",stimulation of ATP-evoked current relative to TRPC2 alone (TRPC2 channel; enkurin co-expressed with deletion mutant of TRPC2 lacking the PKD1 domain),reduction of co-immunoprecipitation of TRPC2 with enkurin-HA [2] [%]
B1,~25,9,0.5 to 1,about 25 times,5-6 fold,nine +/−two,131+/−12 pA,no stimulation,–
LPQHAATCGESPPPQPASPASLSSS [TRPC2336-361 peptide],–,–,–,–,–,–,–,–,> 90
